Measured values reported in PMC7800377, “A molecular mechanism for LINC complex branching by structurally diverse SUN-KASH 6:6 assemblies” (eLife, 2021).

B1: GCN4-SUN1 (His6-GCN4 fusion of the SUN domain of human SUN1, residues 616–812), wild-type (domain or fragment)
chain: GITEAQARAIVNSALKLYSQDKTGMVDFALESGGGSILSTRCSETYETKTALMSLFGIPLWYFSQSPRVVIQPDIYPGNCWAFKGSQGYLVVRLSMMIHPAAFTLEHIPKTLSPTGNISSAPKDFAVYGLENEYQEEGQLLGQFTYDQDGESLQMFQALKRPDDTAFQIVELRIFSNWGHPEYTCLYRFRVHGEPVK
B2: GCN4-SUN2 (His6-GCN4 fusion of the SUN domain of human SUN2, residues 522–717), wild-type (domain or fragment, UniProt Q9UH99 522-717, looked up)
chain: GVTEEQVHHIVKQALQRYSEDRIGLADYALESGGASVISTRCSETYETKTALLSLFGIPLWYHSQSPRVILQPDVHPGNCWAFQGPQGFAVVRLSARIRPTAVTLEHVPKALSPNSTISSAPKDFAIFGFDEDLQQEGTLLGKFTYDQDGEPIQTFHFQAPTMATYQVVELRILTNWGHPEYTCIYRFRVHGEPAH
notes: SUN2, human, SUN domain, residues 522-717; The GCN4 tag is a trimerising tag (Sosa et al., 2012); not shown: His6, N-terminal, kept; GCN4, N-terminal, kept

Legend:
[1] = target: B1; assay: SEC-MALS; co-expressed and co-purified samples at >1 mg/ml on Superdex 200 Increase 10/300 GL in 20 mM Tris pH 8.0, 150 mM KCl, 2 mM DTT; conditions: both partners purified
[2] = target: B2; assay: as above; conditions: both partners purified
[3] = target: T1, GCN4-SUN2 C705A (His6-GCN4 fusion of SUN2 522–717 C705A) (human, UniProt Q9UH99 522-717, C705A); assay: as above; conditions: both partners purified
T1 construct: SUN2, human, SUN domain, residues 522-717, C705A; The GCN4 tag is a trimerising tag (Sosa et al., 2012); not shown: His6, N-terminal, kept; GCN4, N-terminal, kept
T1 sequence (looked up): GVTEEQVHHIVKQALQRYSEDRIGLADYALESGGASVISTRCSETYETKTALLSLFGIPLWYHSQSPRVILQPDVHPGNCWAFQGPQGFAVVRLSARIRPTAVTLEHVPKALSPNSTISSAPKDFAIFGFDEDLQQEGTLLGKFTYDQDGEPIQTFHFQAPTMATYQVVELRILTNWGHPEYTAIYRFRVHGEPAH

[4] = target: the molecule itself; assay: as above
[5] = target: the molecule itself; assay: not stated; unpublished findings (Gurusaran and Davies)

Binder	stoichiometry N [1]	stoichiometry N [4]	also measured
ASGGPCCSHARIPRTPYLVLSYVNGLPPV (domain or fragment, UniProt Q8N205 376-404, looked up, Nesprin-4, human, C-terminal KASH domain, residues 376-404) [MBP-KASH4 (His6-MBP fusion of the KASH domain of human Nesprin-4, residues 376–404)]	1 binder:target ratio (6:6)	–	stoichiometry N [2]: 1 binder:target ratio (6:6)
GPSPPPTWPHLQLCYLQPPPV (domain or fragment, UniProt Q8N6L0 542-562, looked up, KASH5, human, C-terminal KASH domain, residues 542-562) [MBP-KASH5 (His6-MBP fusion of the KASH domain of human KASH5, residues 542–562)]	1 binder:target ratio (6:6)	–	–
MBP-KASH1 (His6-MBP fusion of the KASH domain of human Nesprin-1, residues 8769–8797) (domain or fragment, Nesprin-1, human, C-terminal KASH domain, residues 8769-8797) not shown	1 binder:target ratio (6:6)	–	stoichiometry N [3]: 1 binder:target ratio (6:6)
B1	–	3	–
B2	–	3	–
KASH5 (construct not told; unpublished findings) (natural protein, human, UniProt Q8N6L0 1-562, looked up, KASH5, human; Told only as 'KASH5 is dimeric (Gurusaran and Davies, unpublished findings)') MDLPEGPVGGPTAEMYLRERPEEARLGMPVSLEEQILNSTFEACDPQRTGTVAVAQVLAYLEAVTGQGPQDARLQTLANSLDPNGEGPKATVDLDTFLVVMRDWIAACQLHGGLELEEETAFQGALTSRQLPSGCPEAEEPANLESFGGEDPRPELQATADLLSSLEDLELSNRRLVGENAKLQRSMETAEEGSARLGEEILALRKQLHSTQQALQFAKAMDEELEDLKTLARSLEEQNRSLLAQARQAEKEQQHLVAEMETLQEENGKLLAERDGVKKRSQELAMEKDTLKRQLFECEHLICQRDTILSERTRDVESLAQTLEEYRVTTQELRLEISRLEEQLSQTYEGPDELPEGAQLRRVGWTELLPPSLGLEIEAIRQKQEVATADLSNPLCGVWQWEEVIHETSEETEFPSEAPAGGQRNFQGEPAHPEEGRKEPSMWLTRREEEEDAESQVTADLPVPLGAPRPGDIPENPPERPARRELQQALVPVMKKLVPVRRRAWGQLCLPPQRLRVTRHPLIPAPVLGLLLLLLLSVLLLGPSPPPTWPHLQLCYLQPPPV	–	–	stoichiometry N [5]: 2
